The RNAGym collection of RNA variant scans (doi:10.7554/elife.80360)

B1: HDV Ribozyme (parent)
chain: GGCCGGCAUGGUCCCAGCCUCCUCGCUGGCGCCGGCUGGGCAACAUUCCGAGGGGACCGUCCCCUCGGUAAUGGCGAAUGGGACCCA

Variants of: B1
Assay: self-cleavage, relative activity (ratio to wild type); higher = more cleavage; co-transcriptional

| Variant | self-cleavage |
| --- | --- |
| C30G U37C | 0 |
| G31C G34C | 0.0396 |
| C30A G50C | 0.577 |
| C32A A71C | 0 |
| C30G U69G | 0 |
| G31A C49G | 0.34 |
| C30A A42G | 0 |
| G31C C75G | 0.0396 |
| G31U A56G | 0.386 |
| G29U U72G | 0 |
| C30U C32U | 0.7 |
| C30A C36A | 0.0361 |
| G31C A56G | 0.166 |
| G31A G80U | 0.104 |
| C30U C85U | 0.787 |
| G29U C66U | 0.147 |
| C30U G50C | 0.677 |
| C30U G50U | 0.645 |
| G29U A45U | 0 |
| C30G C84U | 0.0268 |
| C30G C84G | 0.0755 |

| Variant | self-cleavage |
| --- | --- |
| G31A G73A | 0.234 |
| G31A G73U | 0.229 |
| G31A G73C | 0.107 |
| G31U A42C | 0.131 |
| G31U A42U | 0.104 |
| G29C G80U | 0.0953 |
| G29C G80A | 0.0692 |
| G31U U46A | 0.0755 |
| G31U U46G | 0.38 |
| C30G C61A | 0.0252 |
| C30G C61G | 0.157 |
| G31U U47G | 0.32 |
| G31C C36A | 0.0277 |
| G31C C36G | 0 |
| C30G C62G | 0 |
| C30G A71G | 0.0339 |
| G29U C63U | 0 |
| C30G G81C | 0.032 |
| C30U A56U | 0.782 |
| G29U A42G | 0.148 |
| G29U A42U | 0.102 |

| Variant | self-cleavage |
| --- | --- |
| G31C G59U | 0.252 |
| C30U G67U | 0.75 |
| G31U G74C | 0.223 |
| G31U G50C | 0.237 |
| G31C C57U | 0.445 |
| G31A U72A | 0.0292 |
| C30G C41U | 0.0702 |
| G31A G67U | 0.439 |
| C30A G80A | 0.105 |
| G31C U79A | 0.17 |
| G29U G81C | 0.086 |
| C30A C75G | 0 |
| C30A C75A | 0.166 |
| G29C G82U | 0.0959 |
| G31U U37G | 0.107 |
| C30G C75A | 0.0583 |
| C30A U72A | 0.123 |
| C30A U72C | 0.142 |
| G31C U65C | 0.361 |
| G29U G73U | 0.095 |
| G29U G73C | 0.185 |

| Variant | self-cleavage |
| --- | --- |
| G29U G80C | 0.0504 |
| G29U G80U | 0.0885 |
| G31U U65C | 0.339 |
| C30A C48A | 0.635 |
| C30G U65C | 0 |
| C30G U65G | 0.0346 |
| G31A U79G | 0.266 |
| G31A U79C | 0.11 |
| C30A A78G | 0.309 |
| G29C U46G | 0.0723 |
| G31U C61A | 0.38 |
| G31U C61U | 0.478 |
| G31A A70G | 0.4 |
| C30U C66A | 0.684 |
| C30U C64U | 0.806 |
| C30A C62G | 0.321 |
| C30A A71U | 0.386 |
| G31A G55A | 0.376 |
| G29U G40U | 0.0923 |
| G29C G59U | 0.163 |
